Assay results taken from article PMC9308760 (Molecular cell, 2022).

Key:
TnsB Δ245-251 = biological target: T1, TnsB Δ245-251 (Escherichia coli (Tn7), UniProt P13989 1-702, del245-251); assay: EMSA
T1 sequence: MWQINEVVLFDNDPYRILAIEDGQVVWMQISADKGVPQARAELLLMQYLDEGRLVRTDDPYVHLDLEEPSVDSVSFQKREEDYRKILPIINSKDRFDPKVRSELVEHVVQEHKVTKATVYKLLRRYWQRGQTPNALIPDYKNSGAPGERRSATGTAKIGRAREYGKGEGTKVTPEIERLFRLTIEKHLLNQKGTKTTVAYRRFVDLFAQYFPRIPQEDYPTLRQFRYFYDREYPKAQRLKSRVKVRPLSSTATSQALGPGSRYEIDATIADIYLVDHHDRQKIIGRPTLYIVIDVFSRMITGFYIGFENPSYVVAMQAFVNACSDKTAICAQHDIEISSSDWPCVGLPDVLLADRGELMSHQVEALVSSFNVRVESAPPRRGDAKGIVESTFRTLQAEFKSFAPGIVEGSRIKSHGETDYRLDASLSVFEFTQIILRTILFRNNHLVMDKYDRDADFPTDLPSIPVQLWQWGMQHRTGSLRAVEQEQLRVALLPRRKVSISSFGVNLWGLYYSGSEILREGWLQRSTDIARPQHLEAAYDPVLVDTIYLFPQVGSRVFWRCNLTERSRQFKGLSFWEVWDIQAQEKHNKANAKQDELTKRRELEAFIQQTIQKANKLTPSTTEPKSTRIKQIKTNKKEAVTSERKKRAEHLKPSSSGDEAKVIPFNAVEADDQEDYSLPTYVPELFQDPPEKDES

negative-stain EM = biological target: the molecule itself; assay: negative-stain EM
TnsB wild type = biological target: T2, TnsB wild type (Escherichia coli (Tn7), UniProt P13989 1-702); assay: EMSA
T2 sequence: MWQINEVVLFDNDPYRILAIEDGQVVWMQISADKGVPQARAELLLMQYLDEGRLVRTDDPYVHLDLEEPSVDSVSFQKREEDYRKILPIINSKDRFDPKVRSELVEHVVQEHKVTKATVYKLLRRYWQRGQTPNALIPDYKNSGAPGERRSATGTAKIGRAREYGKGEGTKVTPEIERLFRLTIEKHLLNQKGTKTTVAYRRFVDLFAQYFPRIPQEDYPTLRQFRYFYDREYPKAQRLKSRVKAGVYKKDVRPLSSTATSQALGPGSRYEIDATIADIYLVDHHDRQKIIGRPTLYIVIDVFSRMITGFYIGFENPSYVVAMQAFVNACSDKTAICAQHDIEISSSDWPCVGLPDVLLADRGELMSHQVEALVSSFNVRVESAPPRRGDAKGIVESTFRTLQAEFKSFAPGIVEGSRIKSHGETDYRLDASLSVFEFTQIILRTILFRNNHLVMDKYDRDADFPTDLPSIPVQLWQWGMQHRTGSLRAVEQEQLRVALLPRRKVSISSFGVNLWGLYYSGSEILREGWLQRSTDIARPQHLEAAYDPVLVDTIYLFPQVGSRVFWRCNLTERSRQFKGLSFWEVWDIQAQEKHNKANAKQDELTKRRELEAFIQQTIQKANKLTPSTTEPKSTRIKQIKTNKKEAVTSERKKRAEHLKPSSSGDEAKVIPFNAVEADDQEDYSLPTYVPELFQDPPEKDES

cryo-EM structure = biological target: the molecule itself; assay: cryo-EM structure

B1: 3BS (dsDNA)
DNA 1: CTAGTTTAAGACTTTATTGTCATAGTTTAGATCTATTTTGTTCAGTTTAAGACTTTATTGTCCGCCCACA
DNA 2: TGTGGGCGGACAATAAAGTCTTAAACTGAACAAAATAGATCTAAACTATGACAATAAAGTCTTAAACTAG
binding result (TnsB Δ245-251): binds

B2: TnsB variant with a shorter DBD2-CD linker (Δ245–251) (enzyme, E. coli)
chain: MWQINEVVLFDNDPYRILAIEDGQVVWMQISADKGVPQARAELLLMQYLDEGRLVRTDDPYVHLDLEEPSVDSVSFQKREEDYRKILPIINSKDRFDPKVRSELVEHVVQEHKVTKATVYKLLRRYWQRGQTPNALIPDYKNSGAPGERRSATGTAKIGRAREYGKGEGTKVTPEIERLFRLTIEKHLLNQKGTKTTVAYRRFVDLFAQYFPRIPQEDYPTLRQFRYFYDREYPKAQRLKSRVKVRPLSSTATSQALGPGSRYEIDATIADIYLVDHHDRQKIIGRPTLYIVIDVFSRMITGFYIGFENPSYVVAMQAFVNACSDKTAICAQHDIEISSSDWPCVGLPDVLLADRGELMSHQVEALVSSFNVRVESAPPRRGDAKGIVESTFRTLQAEFKSFAPGIVEGSRIKSHGETDYRLDASLSVFEFTQIILRTILFRNNHLVMDKYDRDADFPTDLPSIPVQLWQWGMQHRTGSLRAVEQEQLRVALLPRRKVSISSFGVNLWGLYYSGSEILREGWLQRSTDIARPQHLEAAYDPVLVDTIYLFPQVGSRVFWRCNLTERSRQFKGLSFWEVWDIQAQEKHNKANAKQDELTKRRELEAFIQQTIQKANKLTPSTTEPKSTRIKQIKTNKKEAVTSERKKRAEHLKPSSSGDEAKVIPFNAVEADDQEDYSLPTYVPELFQDPPEKDES
binding result (negative-stain EM): binds

B3: 2BSL (dsDNA)
DNA 1: CCCAGTTCCCATCTATTTTGTCACTCTTCCCTAAATAATCCTTAAAAACTCCATTTCCACCCCTCCCAGTTCCCAACTATTTTGTCCGCCCACA
DNA 2: TGTGGGCGGACAAAATAGTTGGGAACTGGGAGGGGTGGAAATGGAGTTTTTAAGGATTATTTAGGGAAGAGTGACAAAATAGATGGGAACTGGG
Kd (TnsB wild type): 85 ± 4 nM

B4: Tn7 transposase TnsB (E. coli), wild type (enzyme, UniProt P13989 1-702, looked up)
chain: MWQINEVVLFDNDPYRILAIEDGQVVWMQISADKGVPQARAELLLMQYLDEGRLVRTDDPYVHLDLEEPSVDSVSFQKREEDYRKILPIINSKDRFDPKVRSELVEHVVQEHKVTKATVYKLLRRYWQRGQTPNALIPDYKNSGAPGERRSATGTAKIGRAREYGKGEGTKVTPEIERLFRLTIEKHLLNQKGTKTTVAYRRFVDLFAQYFPRIPQEDYPTLRQFRYFYDREYPKAQRLKSRVKAGVYKKDVRPLSSTATSQALGPGSRYEIDATIADIYLVDHHDRQKIIGRPTLYIVIDVFSRMITGFYIGFENPSYVVAMQAFVNACSDKTAICAQHDIEISSSDWPCVGLPDVLLADRGELMSHQVEALVSSFNVRVESAPPRRGDAKGIVESTFRTLQAEFKSFAPGIVEGSRIKSHGETDYRLDASLSVFEFTQIILRTILFRNNHLVMDKYDRDADFPTDLPSIPVQLWQWGMQHRTGSLRAVEQEQLRVALLPRRKVSISSFGVNLWGLYYSGSEILREGWLQRSTDIARPQHLEAAYDPVLVDTIYLFPQVGSRVFWRCNLTERSRQFKGLSFWEVWDIQAQEKHNKANAKQDELTKRRELEAFIQQTIQKANKLTPSTTEPKSTRIKQIKTNKKEAVTSERKKRAEHLKPSSSGDEAKVIPFNAVEADDQEDYSLPTYVPELFQDPPEKDES
binding result (cryo-EM structure): binds
